Km, kcat and kcat/Km data for 2 substances are collected here from paper PMC6474815.

The series has as its system CC(=O)SCCNC(=O)CCNC(=O)[C@H](O)C(C)(C)COP(=O)(O)OP(=O)(O)OC[C@H]1O[C@@H](n2cnc3c(N)ncnc32)[C@H](O)[C@@H]1OP(=O)(O)O. The experiment in a line: discontinuous colorimetric DTNB assay. It counts as biochemical, Pseudomonas aeruginosa. Conditions: 5 mM polymyxin B constant, 50 mM Tris-HCl pH 8.0, 37 °C.

Broadly, the Km is the concentration of substrate that gives half-maximal velocity. The kcat is the maximal rate divided by the concentration of active sites. For orientation: kcat/Km means the second-order rate constant that governs catalysis at low substrate concentration.

Take “PA3944 (cleaved) (Pseudomonas aeruginosa PAO1)”: the Michaelis constant (Km) was 137 ± 20 µM, the kcat stood at 0.61 s⁻¹ and the kcat/Km was 4450 M⁻¹ s⁻¹.

As to “PA3944 (tagged) (Pseudomonas aeruginosa PAO1)”, the Km worked out at 118 ± 28 µM, the kcat was found to be 0.602 s⁻¹ and the kcat/Km was found to be 5100 M⁻¹ s⁻¹.
